Tested on: EcR-B/VP16-USP heterodimer (Leptinotarsa decemlineata)
Test: EMSA
Conditions: reference band for densitometry; little change with agonist

## hsp27 EcRE probe
  binding signal: 1

Source: US20100240056
